Data on eleven molecules can be found in US9657062B2, “Ghrelin analogues” (Zealand Pharma A/S, priority 2012, dated 2017).

The star is where a group is joined. Octanoyl = CCCCCCCC(=O)*; Octyl = CCCCCCCC*

This assay deals with human growth hormone secretagogue receptor type 1a (human, UniProt Q92847 1-366). As to the kind of experiment: cell-based or functional assay.
Sequence of human growth hormone secretagogue receptor type 1a (Q92847 whole entry): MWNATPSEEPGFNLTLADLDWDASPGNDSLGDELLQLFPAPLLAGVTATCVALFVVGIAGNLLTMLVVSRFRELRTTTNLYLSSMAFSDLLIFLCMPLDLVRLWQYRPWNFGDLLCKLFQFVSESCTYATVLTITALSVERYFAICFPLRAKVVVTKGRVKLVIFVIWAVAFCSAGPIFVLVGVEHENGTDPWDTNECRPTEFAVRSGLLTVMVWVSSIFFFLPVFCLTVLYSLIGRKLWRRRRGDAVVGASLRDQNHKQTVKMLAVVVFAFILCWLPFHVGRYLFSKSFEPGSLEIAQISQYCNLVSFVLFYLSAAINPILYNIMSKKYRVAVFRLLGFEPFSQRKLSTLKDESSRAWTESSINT

B1: H-PS-S(octanoyl)-FLSPEHQRVQQRKESKKPPASLQPR-NH2 (peptide)
peptide: H-PSS(Octanoyl)FLSPEHQRVQQRKESKKPPASLQPR-NH2
SMILES: CCCCCCCC(=O)OC[C@H](NC(=O)[C@H](CO)NC(=O)[C@@H]1CCCN1)C(=O)N[C@@H](Cc1ccccc1)C(=O)N[C@@H](CC(C)C)C(=O)N[C@@H](CO)C(=O)N1CCC[C@H]1C(=O)N[C@@H](CCC(=O)O)C(=O)N[C@@H](Cc1c[nH]cn1)C(=O)N[C@@H](CCC(N)=O)C(=O)N[C@@H](CCCNC(=N)N)C(=O)N[C@H](C(=O)N[C@@H](CCC(N)=O)C(=O)N[C@@H](CCC(N)=O)C(=O)N[C@@H](CCCNC(=N)N)C(=O)N[C@@H](CCCCN)C(=O)N[C@@H](CCC(=O)O)C(=O)N[C@@H](CO)C(=O)N[C@@H](CCCCN)C(=O)N[C@@H](CCCCN)C(=O)N1CCC[C@H]1C(=O)N1CCC[C@H]1C(=O)N[C@@H](C)C(=O)N[C@@H](CO)C(=O)N[C@@H](CC(C)C)C(=O)N[C@@H](CCC(N)=O)C(=O)N1CCC[C@H]1C(=O)N[C@@H](CCCNC(=N)N)C(N)=O)C(C)C
In the case of B1, the “EC50 (nM); Ca2+ induction in HEK293 cells stably expressing the human ghrelin receptor” value (from here on “EC50 (nM); Ca2+ induction”) is 0.183 nM.

B2: H-PS-S(octanoyl)-FLSPEHQRVQQRKESKKPPAKLQPS-NH2 (peptide)
peptide: H-PSS(Octanoyl)FLSPEHQRVQQRKESKKPPAKLQPS-NH2
SMILES: CCCCCCCC(=O)OC[C@H](NC(=O)[C@H](CO)NC(=O)[C@@H]1CCCN1)C(=O)N[C@@H](Cc1ccccc1)C(=O)N[C@@H](CC(C)C)C(=O)N[C@@H](CO)C(=O)N1CCC[C@H]1C(=O)N[C@@H](CCC(=O)O)C(=O)N[C@@H](Cc1c[nH]cn1)C(=O)N[C@@H](CCC(N)=O)C(=O)N[C@@H](CCCNC(=N)N)C(=O)N[C@H](C(=O)N[C@@H](CCC(N)=O)C(=O)N[C@@H](CCC(N)=O)C(=O)N[C@@H](CCCNC(=N)N)C(=O)N[C@@H](CCCCN)C(=O)N[C@@H](CCC(=O)O)C(=O)N[C@@H](CO)C(=O)N[C@@H](CCCCN)C(=O)N[C@@H](CCCCN)C(=O)N1CCC[C@H]1C(=O)N1CCC[C@H]1C(=O)N[C@@H](C)C(=O)N[C@@H](CCCCN)C(=O)N[C@@H](CC(C)C)C(=O)N[C@@H](CCC(N)=O)C(=O)N1CCC[C@H]1C(=O)N[C@@H](CO)C(N)=O)C(C)C
Regarding B2, the “EC50 (nM); Ca2+ induction” value was 0.039 nM.

B3: H-PS-S(octanoyl)-FLSPEHQRVQQRKESKSPPAKLQPR-NH2 (peptide)
peptide: H-PSS(Octanoyl)FLSPEHQRVQQRKESKSPPAKLQPR-NH2
SMILES: CCCCCCCC(=O)OC[C@H](NC(=O)[C@H](CO)NC(=O)[C@@H]1CCCN1)C(=O)N[C@@H](Cc1ccccc1)C(=O)N[C@@H](CC(C)C)C(=O)N[C@@H](CO)C(=O)N1CCC[C@H]1C(=O)N[C@@H](CCC(=O)O)C(=O)N[C@@H](Cc1c[nH]cn1)C(=O)N[C@@H](CCC(N)=O)C(=O)N[C@@H](CCCNC(=N)N)C(=O)N[C@H](C(=O)N[C@@H](CCC(N)=O)C(=O)N[C@@H](CCC(N)=O)C(=O)N[C@@H](CCCNC(=N)N)C(=O)N[C@@H](CCCCN)C(=O)N[C@@H](CCC(=O)O)C(=O)N[C@@H](CO)C(=O)N[C@@H](CCCCN)C(=O)N[C@@H](CO)C(=O)N1CCC[C@H]1C(=O)N1CCC[C@H]1C(=O)N[C@@H](C)C(=O)N[C@@H](CCCCN)C(=O)N[C@@H](CC(C)C)C(=O)N[C@@H](CCC(N)=O)C(=O)N1CCC[C@H]1C(=O)N[C@@H](CCCNC(=N)N)C(N)=O)C(C)C
Take B3: the “EC50 (nM); Ca2+ induction” value turned out to be 0.086 nM.

B4: H-PS-S(octanoyl)-FLSPEHQRVQQRSESKKPPAKLQPR-NH2 (peptide)
peptide: H-PSS(Octanoyl)FLSPEHQRVQQRSESKKPPAKLQPR-NH2
SMILES: CCCCCCCC(=O)OC[C@H](NC(=O)[C@H](CO)NC(=O)[C@@H]1CCCN1)C(=O)N[C@@H](Cc1ccccc1)C(=O)N[C@@H](CC(C)C)C(=O)N[C@@H](CO)C(=O)N1CCC[C@H]1C(=O)N[C@@H](CCC(=O)O)C(=O)N[C@@H](Cc1c[nH]cn1)C(=O)N[C@@H](CCC(N)=O)C(=O)N[C@@H](CCCNC(=N)N)C(=O)N[C@H](C(=O)N[C@@H](CCC(N)=O)C(=O)N[C@@H](CCC(N)=O)C(=O)N[C@@H](CCCNC(=N)N)C(=O)N[C@@H](CO)C(=O)N[C@@H](CCC(=O)O)C(=O)N[C@@H](CO)C(=O)N[C@@H](CCCCN)C(=O)N[C@@H](CCCCN)C(=O)N1CCC[C@H]1C(=O)N1CCC[C@H]1C(=O)N[C@@H](C)C(=O)N[C@@H](CCCCN)C(=O)N[C@@H](CC(C)C)C(=O)N[C@@H](CCC(N)=O)C(=O)N1CCC[C@H]1C(=O)N[C@@H](CCCNC(=N)N)C(N)=O)C(C)C
Regarding B4, the “EC50 (nM); Ca2+ induction” value stood at 0.182 nM.

B5: H-PS-S(octanoyl)-FLSPEHQRVQQRKESKKPPAYLQPR-NH2 (peptide)
peptide: H-PSS(Octanoyl)FLSPEHQRVQQRKESKKPPAYLQPR-NH2
SMILES: CCCCCCCC(=O)OC[C@H](NC(=O)[C@H](CO)NC(=O)[C@@H]1CCCN1)C(=O)N[C@@H](Cc1ccccc1)C(=O)N[C@@H](CC(C)C)C(=O)N[C@@H](CO)C(=O)N1CCC[C@H]1C(=O)N[C@@H](CCC(=O)O)C(=O)N[C@@H](Cc1c[nH]cn1)C(=O)N[C@@H](CCC(N)=O)C(=O)N[C@@H](CCCNC(=N)N)C(=O)N[C@H](C(=O)N[C@@H](CCC(N)=O)C(=O)N[C@@H](CCC(N)=O)C(=O)N[C@@H](CCCNC(=N)N)C(=O)N[C@@H](CCCCN)C(=O)N[C@@H](CCC(=O)O)C(=O)N[C@@H](CO)C(=O)N[C@@H](CCCCN)C(=O)N[C@@H](CCCCN)C(=O)N1CCC[C@H]1C(=O)N1CCC[C@H]1C(=O)N[C@@H](C)C(=O)N[C@@H](Cc1ccc(O)cc1)C(=O)N[C@@H](CC(C)C)C(=O)N[C@@H](CCC(N)=O)C(=O)N1CCC[C@H]1C(=O)N[C@@H](CCCNC(=N)N)C(N)=O)C(C)C
B5: the “EC50 (nM); Ca2+ induction” value is 0.252 nM.

B6: H-PS-S(octanoyl)-FLSPYHQRVQYRKESKKPPAYLQPR-NH2 (peptide)
peptide: H-PSS(Octanoyl)FLSPYHQRVQYRKESKKPPAYLQPR-NH2
SMILES: CCCCCCCC(=O)OC[C@H](NC(=O)[C@H](CO)NC(=O)[C@@H]1CCCN1)C(=O)N[C@@H](Cc1ccccc1)C(=O)N[C@@H](CC(C)C)C(=O)N[C@@H](CO)C(=O)N1CCC[C@H]1C(=O)N[C@@H](Cc1ccc(O)cc1)C(=O)N[C@@H](Cc1c[nH]cn1)C(=O)N[C@@H](CCC(N)=O)C(=O)N[C@@H](CCCNC(=N)N)C(=O)N[C@H](C(=O)N[C@@H](CCC(N)=O)C(=O)N[C@@H](Cc1ccc(O)cc1)C(=O)N[C@@H](CCCNC(=N)N)C(=O)N[C@@H](CCCCN)C(=O)N[C@@H](CCC(=O)O)C(=O)N[C@@H](CO)C(=O)N[C@@H](CCCCN)C(=O)N[C@@H](CCCCN)C(=O)N1CCC[C@H]1C(=O)N1CCC[C@H]1C(=O)N[C@@H](C)C(=O)N[C@@H](Cc1ccc(O)cc1)C(=O)N[C@@H](CC(C)C)C(=O)N[C@@H](CCC(N)=O)C(=O)N1CCC[C@H]1C(=O)N[C@@H](CCCNC(=N)N)C(N)=O)C(C)C
Take B6: the “EC50 (nM); Ca2+ induction” value was 0.594 nM.

B7: H-PS-S(octanoyl)-FLSPEHQRVQYRKESKKPPAKLQPR-NH2 (peptide)
peptide: H-PSS(Octanoyl)FLSPEHQRVQYRKESKKPPAKLQPR-NH2
SMILES: CCCCCCCC(=O)OC[C@H](NC(=O)[C@H](CO)NC(=O)[C@@H]1CCCN1)C(=O)N[C@@H](Cc1ccccc1)C(=O)N[C@@H](CC(C)C)C(=O)N[C@@H](CO)C(=O)N1CCC[C@H]1C(=O)N[C@@H](CCC(=O)O)C(=O)N[C@@H](Cc1c[nH]cn1)C(=O)N[C@@H](CCC(N)=O)C(=O)N[C@@H](CCCNC(=N)N)C(=O)N[C@H](C(=O)N[C@@H](CCC(N)=O)C(=O)N[C@@H](Cc1ccc(O)cc1)C(=O)N[C@@H](CCCNC(=N)N)C(=O)N[C@@H](CCCCN)C(=O)N[C@@H](CCC(=O)O)C(=O)N[C@@H](CO)C(=O)N[C@@H](CCCCN)C(=O)N[C@@H](CCCCN)C(=O)N1CCC[C@H]1C(=O)N1CCC[C@H]1C(=O)N[C@@H](C)C(=O)N[C@@H](CCCCN)C(=O)N[C@@H](CC(C)C)C(=O)N[C@@H](CCC(N)=O)C(=O)N1CCC[C@H]1C(=O)N[C@@H](CCCNC(=N)N)C(N)=O)C(C)C
B7: the “EC50 (nM); Ca2+ induction” value turned out to be 0.198 nM. Take H-PSS(Octyl)FLSPEHQRVQQRKESKKPPAKLQPR-NH2 [H-PS-S(O-octyl)-FLSPEHQRVQQRKESKKPPAKLQPR-NH2]: the “EC50 (nM); Ca2+ induction” value amounted to 0.396 nM.

B8: H-PS-S(octanoyl)-FLSPYHQRVQQRKESKKPPAKLQPR-NH2 (peptide)
peptide: H-PSS(Octanoyl)FLSPYHQRVQQRKESKKPPAKLQPR-NH2
SMILES: CCCCCCCC(=O)OC[C@H](NC(=O)[C@H](CO)NC(=O)[C@@H]1CCCN1)C(=O)N[C@@H](Cc1ccccc1)C(=O)N[C@@H](CC(C)C)C(=O)N[C@@H](CO)C(=O)N1CCC[C@H]1C(=O)N[C@@H](Cc1ccc(O)cc1)C(=O)N[C@@H](Cc1c[nH]cn1)C(=O)N[C@@H](CCC(N)=O)C(=O)N[C@@H](CCCNC(=N)N)C(=O)N[C@H](C(=O)N[C@@H](CCC(N)=O)C(=O)N[C@@H](CCC(N)=O)C(=O)N[C@@H](CCCNC(=N)N)C(=O)N[C@@H](CCCCN)C(=O)N[C@@H](CCC(=O)O)C(=O)N[C@@H](CO)C(=O)N[C@@H](CCCCN)C(=O)N[C@@H](CCCCN)C(=O)N1CCC[C@H]1C(=O)N1CCC[C@H]1C(=O)N[C@@H](C)C(=O)N[C@@H](CCCCN)C(=O)N[C@@H](CC(C)C)C(=O)N[C@@H](CCC(N)=O)C(=O)N1CCC[C@H]1C(=O)N[C@@H](CCCNC(=N)N)C(N)=O)C(C)C
On to B8, for which the “EC50 (nM); Ca2+ induction” value was 0.719 nM.

B9: H-PS-S(octanoyl)-FLSPEHQRVQQRKESSKPPAKLQPR-NH2 (peptide)
peptide: H-PSS(Octanoyl)FLSPEHQRVQQRKESSKPPAKLQPR-NH2
SMILES: CCCCCCCC(=O)OC[C@H](NC(=O)[C@H](CO)NC(=O)[C@@H]1CCCN1)C(=O)N[C@@H](Cc1ccccc1)C(=O)N[C@@H](CC(C)C)C(=O)N[C@@H](CO)C(=O)N1CCC[C@H]1C(=O)N[C@@H](CCC(=O)O)C(=O)N[C@@H](Cc1c[nH]cn1)C(=O)N[C@@H](CCC(N)=O)C(=O)N[C@@H](CCCNC(=N)N)C(=O)N[C@H](C(=O)N[C@@H](CCC(N)=O)C(=O)N[C@@H](CCC(N)=O)C(=O)N[C@@H](CCCNC(=N)N)C(=O)N[C@@H](CCCCN)C(=O)N[C@@H](CCC(=O)O)C(=O)N[C@@H](CO)C(=O)N[C@@H](CO)C(=O)N[C@@H](CCCCN)C(=O)N1CCC[C@H]1C(=O)N1CCC[C@H]1C(=O)N[C@@H](C)C(=O)N[C@@H](CCCCN)C(=O)N[C@@H](CC(C)C)C(=O)N[C@@H](CCC(N)=O)C(=O)N1CCC[C@H]1C(=O)N[C@@H](CCCNC(=N)N)C(N)=O)C(C)C
B9: the “EC50 (nM); Ca2+ induction” value stood at 0.095 nM. As for XSSFLSPEHQRVQQRKESKKPPAKLQPR (DPro at position 1; Ser(O-octanoyl) at position 3; C-terminal -OH) [H-[DPro]-S-S(O-octanoyl)-FLSPEHQRVQQRKESKKPPAKLQPR-OH], the figure is 0.786 nM.
